This passage reports percent of syntaxin-4 pulled down results from publication PMC2628611.

The test deals with GST-DOC2b (wild type) (mouse) (UniProt P70169). Description: pull-down.
UniProt P70169, sequence (P70169 whole entry): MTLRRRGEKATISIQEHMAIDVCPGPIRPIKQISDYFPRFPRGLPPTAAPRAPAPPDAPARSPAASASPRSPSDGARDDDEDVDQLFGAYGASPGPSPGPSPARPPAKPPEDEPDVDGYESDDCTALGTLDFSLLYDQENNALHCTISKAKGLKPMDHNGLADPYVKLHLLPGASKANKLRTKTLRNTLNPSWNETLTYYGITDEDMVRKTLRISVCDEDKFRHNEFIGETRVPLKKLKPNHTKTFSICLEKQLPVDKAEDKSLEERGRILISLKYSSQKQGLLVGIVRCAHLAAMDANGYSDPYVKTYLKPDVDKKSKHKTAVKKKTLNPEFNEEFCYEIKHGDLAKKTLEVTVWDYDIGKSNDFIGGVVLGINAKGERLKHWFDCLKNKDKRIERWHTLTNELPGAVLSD

Substance “recombinant syntaxin-4 (cleaved from GST syntaxin-4) (from UniProt P70452 1-298) (natural protein)” had a percent of syntaxin-4 pulled down of 5%.
